T1: Human OSM (human, UniProt P13725 26-221)
T1 construct: Recombinant human OSM; also called hOSM; human Oncostatin M
T1 sequence: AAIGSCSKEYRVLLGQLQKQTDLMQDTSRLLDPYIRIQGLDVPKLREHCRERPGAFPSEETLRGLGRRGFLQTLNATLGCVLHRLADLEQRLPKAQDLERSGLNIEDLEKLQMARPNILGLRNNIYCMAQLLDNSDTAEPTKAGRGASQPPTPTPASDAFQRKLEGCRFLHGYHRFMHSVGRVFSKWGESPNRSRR


Each binder was assayed against T1, Human OSM (assay: SPR (ProteOn XPR36 or Biacore T100), captured supernatant, OSM as analyte [continued]).
Method: (§1) The initial kinetic analyses for the CDRH3 screen were carried out on the ProteOn XPR36 (Biorad Laboratories) and certain supernatants were selected for more accurate kinetic analysis on the BiaCore T100.
(§2) For the ProteOn analysis, anti-human IgG (GE Healthcare/Biacore BR-1008-39) was coupled to a GLM chip (Biorad Laboratories 176-5012) by primary amine coupling. The CDRH3 variants were captured directly on to this surface and recombinant human OSM was passed over the captured antibody surface at 256, 64, 16, 4 and 1 nM, with a buffer injection alone (i.e. 0 nM) used to double reference the binding curves. Following the OSM binding event, the capture surfaces were regenerated: with 3M MgCl₂ the regeneration removed the previously captured antibody ready for another cycle of capture and binding analysis. The data was then fitted to the 1:1 model (with mass transport) inherent to the ProteOn analysis software. The run was carried out using HBS-EP (Biacore/GE-Healthcare BR-1006-69) and the analysis temperature was 25° C.
(§3) A similar method was used for analysis of constructs using the Biacore T100, anti-human IgG (GE Healthcare/Biacore BR-1008-39) was coupled to a CM5 chip (GE Healthcare/Biacore BR-1006-68) by primary amine coupling, antibodies were captured on this surface and recombinant human OSM was passed over the captured antibody surface at 256, 64, 16, 4 and 1 nM, with a buffer injection alone (i.e. 0 nM) used to double reference the binding curves. Regeneration was by using pulses of 3M 3M MgCl₂ or 100 mM phosphoric acid or using both reagents. The data was fitted to the 1:1 model inherent to the Biacore T100 analysis software. The run was carried out using HBS-EP (Biacore/GE-Healthcare BR-1006-69) and the analysis temperature was 25° C.

| Kd | Binder |
| --- | --- |
| 0.497 nM | Pos 96 Thr (antibody, V domains shown, also called CDRH3 V96>T) VH: EVQLVESGGGLVQPGGSLRLSCAASGFTFSSYAMSWVRQAPGKGLEWVATISDGGSFTYYLDNVRGRFTISRDNAKNSLYLQMNSLRAEDTAVYYCARDTGHTTFWYFDVWGRGTLVTVSS VL: DIVMTQSPDSLAVSLGERATINCRASKSVSAAGYNFMHWYQQKPGQPPKVLIYYASNLESGVPDRFSGSGSGTDFTLTISSLQAEDVAVYYCLHSREFPFTFGGGTKVEIKR |
| 0.317 nM | Pos 98 Trp (antibody, V domains shown, also called CDRH3 H98>W) VH: EVQLVESGGGLVQPGGSLRLSCAASGFTFSSYAMSWVRQAPGKGLEWVATISDGGSFTYYLDNVRGRFTISRDNAKNSLYLQMNSLRAEDTAVYYCARDVGWTTFWYFDVWGRGTLVTVSS VL: DIVMTQSPDSLAVSLGERATINCRASKSVSAAGYNFMHWYQQKPGQPPKVLIYYASNLESGVPDRFSGSGSGTDFTLTISSLQAEDVAVYYCLHSREFPFTFGGGTKVEIKR |
| 0.979 nM | Pos 96 Trp (antibody, V domains shown, also called CDRH3 V96>W) VH: EVQLVESGGGLVQPGGSLRLSCAASGFTFSSYAMSWVRQAPGKGLEWVATISDGGSFTYYLDNVRGRFTISRDNAKNSLYLQMNSLRAEDTAVYYCARDWGHTTFWYFDVWGRGTLVTVSS VL: DIVMTQSPDSLAVSLGERATINCRASKSVSAAGYNFMHWYQQKPGQPPKVLIYYASNLESGVPDRFSGSGSGTDFTLTISSLQAEDVAVYYCLHSREFPFTFGGGTKVEIKR |
| 0.444 nM | Pos 102 Ser (antibody, V domains shown, also called CDRH3 V102>S) VH: EVQLVESGGGLVQPGGSLRLSCAASGFTFSSYAMSWVRQAPGKGLEWVATISDGGSFTYYLDNVRGRFTISRDNAKNSLYLQMNSLRAEDTAVYYCARDVGHTTFWYFDSWGRGTLVTVSS VL: DIVMTQSPDSLAVSLGERATINCRASKSVSAAGYNFMHWYQQKPGQPPKVLIYYASNLESGVPDRFSGSGSGTDFTLTISSLQAEDVAVYYCLHSREFPFTFGGGTKVEIKR |
| 0.44 nM | Pos 101 Val (antibody, V domains shown, also called CDRH3 D101>V) VH: EVQLVESGGGLVQPGGSLRLSCAASGFTFSSYAMSWVRQAPGKGLEWVATISDGGSFTYYLDNVRGRFTISRDNAKNSLYLQMNSLRAEDTAVYYCARDVGHTTFWYFVVWGRGTLVTVSS VL: DIVMTQSPDSLAVSLGERATINCRASKSVSAAGYNFMHWYQQKPGQPPKVLIYYASNLESGVPDRFSGSGSGTDFTLTISSLQAEDVAVYYCLHSREFPFTFGGGTKVEIKR |
| 0.675 nM | Pos 100D Val (antibody, V domains shown, also called CDRH3 F100D>V) VH: EVQLVESGGGLVQPGGSLRLSCAASGFTFSSYAMSWVRQAPGKGLEWVATISDGGSFTYYLDNVRGRFTISRDNAKNSLYLQMNSLRAEDTAVYYCARDVGHTTFWYVDVWGRGTLVTVSS VL: DIVMTQSPDSLAVSLGERATINCRASKSVSAAGYNFMHWYQQKPGQPPKVLIYYASNLESGVPDRFSGSGSGTDFTLTISSLQAEDVAVYYCLHSREFPFTFGGGTKVEIKR |
| 0.687 nM | Pos 100C Trp (antibody, V domains shown, also called CDRH3 Y100C>W) VH: EVQLVESGGGLVQPGGSLRLSCAASGFTFSSYAMSWVRQAPGKGLEWVATISDGGSFTYYLDNVRGRFTISRDNAKNSLYLQMNSLRAEDTAVYYCARDVGHTTFWWFDVWGRGTLVTVSS VL: DIVMTQSPDSLAVSLGERATINCRASKSVSAAGYNFMHWYQQKPGQPPKVLIYYASNLESGVPDRFSGSGSGTDFTLTISSLQAEDVAVYYCLHSREFPFTFGGGTKVEIKR |
| 0.711 nM | Pos 100D Trp (antibody, V domains shown, also called CDRH3 F100D>W) VH: EVQLVESGGGLVQPGGSLRLSCAASGFTFSSYAMSWVRQAPGKGLEWVATISDGGSFTYYLDNVRGRFTISRDNAKNSLYLQMNSLRAEDTAVYYCARDVGHTTFWYWDVWGRGTLVTVSS VL: DIVMTQSPDSLAVSLGERATINCRASKSVSAAGYNFMHWYQQKPGQPPKVLIYYASNLESGVPDRFSGSGSGTDFTLTISSLQAEDVAVYYCLHSREFPFTFGGGTKVEIKR |
| 0.56 nM | Pos 100C Val (antibody, V domains shown, also called CDRH3 Y100C>V) VH: EVQLVESGGGLVQPGGSLRLSCAASGFTFSSYAMSWVRQAPGKGLEWVATISDGGSFTYYLDNVRGRFTISRDNAKNSLYLQMNSLRAEDTAVYYCARDVGHTTFWVFDVWGRGTLVTVSS VL: DIVMTQSPDSLAVSLGERATINCRASKSVSAAGYNFMHWYQQKPGQPPKVLIYYASNLESGVPDRFSGSGSGTDFTLTISSLQAEDVAVYYCLHSREFPFTFGGGTKVEIKR |

The binders below were run against T1, Human OSM (assay: SPR (ProteOn XPR36 or Biacore T100), captured supernatant, OSM as analyte; grey cell: 3x decrease in binding).
Method: as §1, §2, §3

| Kd | Binder |
| --- | --- |
| 5.19 nM | Pos 100A Met (antibody, V domains shown, also called CDRH3 F100A>M) VH: EVQLVESGGGLVQPGGSLRLSCAASGFTFSSYAMSWVRQAPGKGLEWVATISDGGSFTYYLDNVRGRFTISRDNAKNSLYLQMNSLRAEDTAVYYCARDVGHTTMWYFDVWGRGTLVTVSS VL: DIVMTQSPDSLAVSLGERATINCRASKSVSAAGYNFMHWYQQKPGQPPKVLIYYASNLESGVPDRFSGSGSGTDFTLTISSLQAEDVAVYYCLHSREFPFTFGGGTKVEIKR |
| 39.7 nM | Pos 100A His (antibody, V domains shown, also called CDRH3 F100A>H) VH: EVQLVESGGGLVQPGGSLRLSCAASGFTFSSYAMSWVRQAPGKGLEWVATISDGGSFTYYLDNVRGRFTISRDNAKNSLYLQMNSLRAEDTAVYYCARDVGHTTHWYFDVWGRGTLVTVSS VL: DIVMTQSPDSLAVSLGERATINCRASKSVSAAGYNFMHWYQQKPGQPPKVLIYYASNLESGVPDRFSGSGSGTDFTLTISSLQAEDVAVYYCLHSREFPFTFGGGTKVEIKR |
| 3.35 nM | Pos 100B Gln (antibody, V domains shown, also called CDRH3 W100B>Q) VH: EVQLVESGGGLVQPGGSLRLSCAASGFTFSSYAMSWVRQAPGKGLEWVATISDGGSFTYYLDNVRGRFTISRDNAKNSLYLQMNSLRAEDTAVYYCARDVGHTTFQYFDVWGRGTLVTVSS VL: DIVMTQSPDSLAVSLGERATINCRASKSVSAAGYNFMHWYQQKPGQPPKVLIYYASNLESGVPDRFSGSGSGTDFTLTISSLQAEDVAVYYCLHSREFPFTFGGGTKVEIKR |
| 1.17 nM | Pos 100C Gln (antibody, V domains shown, also called CDRH3 Y100C>Q) VH: EVQLVESGGGLVQPGGSLRLSCAASGFTFSSYAMSWVRQAPGKGLEWVATISDGGSFTYYLDNVRGRFTISRDNAKNSLYLQMNSLRAEDTAVYYCARDVGHTTFWQFDVWGRGTLVTVSS VL: DIVMTQSPDSLAVSLGERATINCRASKSVSAAGYNFMHWYQQKPGQPPKVLIYYASNLESGVPDRFSGSGSGTDFTLTISSLQAEDVAVYYCLHSREFPFTFGGGTKVEIKR |
| 1.55 nM | Pos 101 Ala (antibody, V domains shown, also called CDRH3 D101>A) VH: EVQLVESGGGLVQPGGSLRLSCAASGFTFSSYAMSWVRQAPGKGLEWVATISDGGSFTYYLDNVRGRFTISRDNAKNSLYLQMNSLRAEDTAVYYCARDVGHTTFWYFAVWGRGTLVTVSS VL: DIVMTQSPDSLAVSLGERATINCRASKSVSAAGYNFMHWYQQKPGQPPKVLIYYASNLESGVPDRFSGSGSGTDFTLTISSLQAEDVAVYYCLHSREFPFTFGGGTKVEIKR |
| 8.55 nM | Pos 100 Ala (antibody, V domains shown, also called CDRH3 T100>A) VH: EVQLVESGGGLVQPGGSLRLSCAASGFTFSSYAMSWVRQAPGKGLEWVATISDGGSFTYYLDNVRGRFTISRDNAKNSLYLQMNSLRAEDTAVYYCARDVGHTAFWYFDVWGRGTLVTVSS VL: DIVMTQSPDSLAVSLGERATINCRASKSVSAAGYNFMHWYQQKPGQPPKVLIYYASNLESGVPDRFSGSGSGTDFTLTISSLQAEDVAVYYCLHSREFPFTFGGGTKVEIKR |
| 14.6 nM | Pos 100A Gln (antibody, V domains shown, also called CDRH3 F100A>Q) VH: EVQLVESGGGLVQPGGSLRLSCAASGFTFSSYAMSWVRQAPGKGLEWVATISDGGSFTYYLDNVRGRFTISRDNAKNSLYLQMNSLRAEDTAVYYCARDVGHTTQWYFDVWGRGTLVTVSS VL: DIVMTQSPDSLAVSLGERATINCRASKSVSAAGYNFMHWYQQKPGQPPKVLIYYASNLESGVPDRFSGSGSGTDFTLTISSLQAEDVAVYYCLHSREFPFTFGGGTKVEIKR |
| 0.424 nM | Pos 100C Leu (antibody, V domains shown, also called CDRH3 Y100C>L) VH: EVQLVESGGGLVQPGGSLRLSCAASGFTFSSYAMSWVRQAPGKGLEWVATISDGGSFTYYLDNVRGRFTISRDNAKNSLYLQMNSLRAEDTAVYYCARDVGHTTFWLFDVWGRGTLVTVSS VL: DIVMTQSPDSLAVSLGERATINCRASKSVSAAGYNFMHWYQQKPGQPPKVLIYYASNLESGVPDRFSGSGSGTDFTLTISSLQAEDVAVYYCLHSREFPFTFGGGTKVEIKR |
| 1.1 nM | Pos 101 Gln (antibody, V domains shown, also called CDRH3 D101>Q) VH: EVQLVESGGGLVQPGGSLRLSCAASGFTFSSYAMSWVRQAPGKGLEWVATISDGGSFTYYLDNVRGRFTISRDNAKNSLYLQMNSLRAEDTAVYYCARDVGHTTFWYFQVWGRGTLVTVSS VL: DIVMTQSPDSLAVSLGERATINCRASKSVSAAGYNFMHWYQQKPGQPPKVLIYYASNLESGVPDRFSGSGSGTDFTLTISSLQAEDVAVYYCLHSREFPFTFGGGTKVEIKR |

From patent publication US20130251724A1 (GlaxoSmithKline, published 2013)
